Reference: the supplement of paper PMC10126150
± gives the standard deviation of the averaged measurements.
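Further: ATP exposure 15 min at 22 °C before imaging.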

Each sequence was assayed on ATP (assay: switch fluorescence ratio, 500 uM ATP over buffer (Cy3 cluster intensity, sum of 5 cycles each) (fold (ratio)); higher = stronger signal-on switching upon ATP binding; sequences stand for … in TCGTCGGCAGCGTCAGATGTGTATAAGAGACAGTTTTTTTTTTTTTTTTTTTTTTTTT…TC). Settings: aptamer strand: ATP DNA aptamer (quencher-CACCTGGGGGAGTATTGCGGAGGAAGG + anchor), 100 nM annealed; ATP concentration: 500 uM.
Outline: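 The fluorescence ratio divides summed target-cycle Cy3 intensity by summed buffer-cycle Cy3 intensity for each cluster and is averaged per switch-domain sequence. Cy3-labelled switching-strand clusters on a modified Illumina MiSeq flow-cell were annealed to 100 nM quencher-labelled ATP aptamer, then imaged in selection buffer and again after 15 min with 500 uM ATP at 22 °C. Five such cycles were run, with NaOH stripping and re-annealing between them, and clusters outside 100-1000 RFU were excluded.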
Sequence GCTCTATGTG has a switch fluorescence ratio of 1.01 ± 0.018.
GCTCTGACGG was tested, and the switch fluorescence ratio was 1.054 ± 0.0086.
GCTCTGGGGG was tested, and the switch fluorescence ratio was 1.03 ± 0.039.
For GCTCTTCCCG, the switch fluorescence ratio was 1.319 ± 0.011.
GCTCTTTGCT gave a switch fluorescence ratio of 0.988 ± 0.044.
GCTGAAAGGA was tested, and the switch fluorescence ratio was 0.999 ± 0.061.
With GCTGACAGCG the switch fluorescence ratio was 0.959 ± 0.017.
GCTGAGAATG gave a switch fluorescence ratio of 0.999 ± 0.021.
In the case of GCTGAGTAAC, the switch fluorescence ratio is reported as 0.99 ± 0.0017.
GCTGATGATA showed a switch fluorescence ratio of 0.967 ± 0.026.
Work on GCTGATGTTC yielded a switch fluorescence ratio of 1.0082 ± 0.001.
GCTGCATATA was tested, and the switch fluorescence ratio was 1.066 ± 0.0095.
GCTGCGGTTT was tested, and the switch fluorescence ratio was 0.993 ± 0.013.
With GCTGCTGGCC the switch fluorescence ratio was 0.999 ± 0.044.
Sequence GCTGCTGTTG has a switch fluorescence ratio of 1.06 ± 0.049.
GCTGGATTGC was tested, and the switch fluorescence ratio was 0.916 ± 0.048.
Sequence GCTGGCACAC has a switch fluorescence ratio of 1.04 ± 0.021.
With GCTGGCAGCC the switch fluorescence ratio was 1.01 ± 0.069.
GCTGGCGTCA showed a switch fluorescence ratio of 1 ± 0.05.
GCTGGGAGTC showed a switch fluorescence ratio of 1 ± 0.029.
For GCTGGGGCAA, the switch fluorescence ratio was 1.01 ± 0.037.
Sequence GCTGGGGCCC has a switch fluorescence ratio of 0.9977 ± 0.005.
GCTGGGGCGT was tested, and the switch fluorescence ratio was 0.9851 ± 0.005.
In the case of GCTGGGGCTT, the switch fluorescence ratio is reported as 0.991 ± 0.014.
With GCTGGGGGTG the switch fluorescence ratio was 1.01 ± 0.012.
For GCTGGGTCTT, the switch fluorescence ratio was 1.03 ± 0.023.
For GCTGGGTGCT, the switch fluorescence ratio was 0.984 ± 0.015.
GCTGGTGCTC was tested, and the switch fluorescence ratio was 1.06 ± 0.05.
GCTGGTTGCT was tested, and the switch fluorescence ratio was 0.994 ± 0.039.
GCTGGTTGGC was tested, and the switch fluorescence ratio was 0.964 ± 0.016.
In the case of GCTGTAACGA, the switch fluorescence ratio is reported as 0.998 ± 0.017.
GCTGTAAGGC gave a switch fluorescence ratio of 1.01 ± 0.039.
For GCTGTCAGCG, the switch fluorescence ratio was 1.02 ± 0.024.
In the case of GCTGTCTGGT, the switch fluorescence ratio is reported as 1.0181 ± 0.00043.
GCTGTGAGTT was tested, and the switch fluorescence ratio was 0.9821 ± 0.006.
GCTGTTGGAG showed a switch fluorescence ratio of 1.02 ± 0.031.
Sequence GCTGTTGGGA has a switch fluorescence ratio of 0.9968 ± 0.0078.
Sequence GCTGTTGGTG has a switch fluorescence ratio of 1.002 ± 0.0037.
For GCTGTTTGTA, the switch fluorescence ratio was 0.999 ± 0.03.
GCTGTTTTTC gave a switch fluorescence ratio of 0.966 ± 0.03.
GCTGTTTTTT gave a switch fluorescence ratio of 1 ± 0.044.
GCTTAAGAGG showed a switch fluorescence ratio of 1.03 ± 0.017.
Sequence GCTTAATGT has a switch fluorescence ratio of 1 ± 0.083.
Work on GCTTATGAAC yielded a switch fluorescence ratio of 1.019 ± 0.0045.
GCTTATTGTT gave a switch fluorescence ratio of 0.99355 ± 0.00014.
In the case of GCTTCAGGGG, the switch fluorescence ratio is reported as 1.09 ± 0.12.
Sequence GCTTCCAGGG has a switch fluorescence ratio of 1.14 ± 0.094.
With GCTTCCGGCC the switch fluorescence ratio was 1.15 ± 0.054.
GCTTCCTTTT showed a switch fluorescence ratio of 1.01 ± 0.022.
Sequence GCTTCGGGGC has a switch fluorescence ratio of 1.01 ± 0.016.
GCTTCTACAG gave a switch fluorescence ratio of 1.047 ± 0.01.
GCTTCTCACA was tested, and the switch fluorescence ratio was 0.981 ± 0.028.
For GCTTCTGGGG, the switch fluorescence ratio was 1.03 ± 0.028.
Sequence GCTTCTTGGC has a switch fluorescence ratio of 0.967 ± 0.034.
With GCTTGAGATT the switch fluorescence ratio was 0.986 ± 0.015.
GCTTGCAGTG was tested, and the switch fluorescence ratio was 0.995 ± 0.033.
Work on GCTTGCCAAA yielded a switch fluorescence ratio of 0.998 ± 0.0083.
In the case of GCTTGCCTAG, the switch fluorescence ratio is reported as 0.962 ± 0.038.
GCTTGGATCG was tested, and the switch fluorescence ratio was 0.993 ± 0.022.
Sequence GCTTGGCTAT has a switch fluorescence ratio of 0.989 ± 0.022.
GCTTGGGGAT showed a switch fluorescence ratio of 1.01 ± 0.033.
In the case of GCTTGGGGCA, the switch fluorescence ratio is reported as 0.967 ± 0.024.
GCTTGGGGTC showed a switch fluorescence ratio of 0.953 ± 0.011.
For GCTTGGGTTC, the switch fluorescence ratio was 1 ± 0.018.
Sequence GCTTGGTCAT has a switch fluorescence ratio of 0.9714 ± 0.0035.
GCTTGTACAT showed a switch fluorescence ratio of 0.982 ± 0.018.
Work on GCTTGTATTA yielded a switch fluorescence ratio of 0.985 ± 0.016.
Work on GCTTGTCGGC yielded a switch fluorescence ratio of 0.99 ± 0.035.
GCTTGTGCTG was tested, and the switch fluorescence ratio was 0.978 ± 0.053.
GCTTGTTATG gave a switch fluorescence ratio of 0.9931 ± 0.007.
Work on GCTTGTTGTT yielded a switch fluorescence ratio of 0.995 ± 0.017.
Sequence GCTTTAAAAT has a switch fluorescence ratio of 1.004 ± 0.0088.
GCTTTAATTC showed a switch fluorescence ratio of 1.029 ± 0.0049.
In the case of GCTTTAATTG, the switch fluorescence ratio is reported as 1.004 ± 0.0097.
Work on GCTTTAATTT yielded a switch fluorescence ratio of 1.07 ± 0.045.
GCTTTACACC was tested, and the switch fluorescence ratio was 1.19 ± 0.092.
Sequence GCTTTAGCAG has a switch fluorescence ratio of 1.03 ± 0.02.
Sequence GCTTTAGGTA has a switch fluorescence ratio of 0.9843 ± 0.0058.
GCTTTATCGG gave a switch fluorescence ratio of 0.965 ± 0.025.
For GCTTTATGAA, the switch fluorescence ratio was 1.02 ± 0.054.
For GCTTTCACGA, the switch fluorescence ratio was 0.9879 ± 0.0036.
GCTTTCCAGA gave a switch fluorescence ratio of 0.9949 ± 0.0059.
In the case of GCTTTCCGGC, the switch fluorescence ratio is reported as 1.02 ± 0.078.
In the case of GCTTTTAGGT, the switch fluorescence ratio is reported as 0.968 ± 0.06.
Sequence GCTTTTGCTG has a switch fluorescence ratio of 0.997 ± 0.013.
For GCTTTTGGCT, the switch fluorescence ratio was 0.992 ± 0.023.
Sequence GCTTTTTGCT has a switch fluorescence ratio of 1.012 ± 0.0054.
In the case of GCTTTTTTAC, the switch fluorescence ratio is reported as 1.38 ± 0.32.
Work on GGAAAAAAGT yielded a switch fluorescence ratio of 1.02 ± 0.047.
Work on GGAAAAAGAT yielded a switch fluorescence ratio of 1.04 ± 0.018.
GGAAAAAGCC was tested, and the switch fluorescence ratio was 0.9562 ± 0.0042.
For GGAAAATAGG, the switch fluorescence ratio was 0.977 ± 0.061.
GGAAAATGGG showed a switch fluorescence ratio of 1.02 ± 0.065.
GGAAAGAAGG gave a switch fluorescence ratio of 1 ± 0.032.
For GGAAAGACCG, the switch fluorescence ratio was 1 ± 0.012.
GGAAATATAG showed a switch fluorescence ratio of 0.989 ± 0.012.
GGAACAGGTG gave a switch fluorescence ratio of 3.49 ± 2.
For GGAACATCTG, the switch fluorescence ratio was 1.007 ± 0.0071.
In the case of GGAACATGGG, the switch fluorescence ratio is reported as 1.004 ± 0.0024.
GGAACCAGGC was tested, and the switch fluorescence ratio was 1.12 ± 0.032.
GGAACCCAGA was tested, and the switch fluorescence ratio was 0.988 ± 0.021.
In the case of GGAACCGGTA, the switch fluorescence ratio is reported as 1.02 ± 0.012.
Work on GGAACGTGGT yielded a switch fluorescence ratio of 0.971 ± 0.017.
With GGAACTGTCT the switch fluorescence ratio was 1.01 ± 0.013.
With GGAACTGTGC the switch fluorescence ratio was 0.948 ± 0.12.
With GGAACTTGTG the switch fluorescence ratio was 0.9732 ± 0.0075.
In the case of GGAAGAGGAG, the switch fluorescence ratio is reported as 0.983 ± 0.014.
In the case of GGAAGCCACG, the switch fluorescence ratio is reported as 1.06 ± 0.022.
In the case of GGAAGGAGAG, the switch fluorescence ratio is reported as 0.986 ± 0.018.
With GGAAGGAGAT the switch fluorescence ratio was 1.003 ± 0.0093.
GGAAGGAGGC was tested, and the switch fluorescence ratio was 1.02 ± 0.088.
GGAAGGGAAA was tested, and the switch fluorescence ratio was 0.981 ± 0.029.
Work on GGAAGGTATG yielded a switch fluorescence ratio of 1.02 ± 0.071.
GGAAGTGGTC was tested, and the switch fluorescence ratio was 1.01 ± 0.059.
For GGAATAAATG, the switch fluorescence ratio was 1.021 ± 0.009.
In the case of GGAATACGTT, the switch fluorescence ratio is reported as 1.08 ± 0.061.
Work on GGAATCAGGA yielded a switch fluorescence ratio of 0.991 ± 0.011.
For GGAATCCGTT, the switch fluorescence ratio was 1.027 ± 0.0025.
In the case of GGAATCTGAT, the switch fluorescence ratio is reported as 0.996 ± 0.12.
Work on GGAATCTTTT yielded a switch fluorescence ratio of 1.08 ± 0.085.
GGAATGAGGA gave a switch fluorescence ratio of 0.99242 ± 0.0004.
GGAATGCTAT was tested, and the switch fluorescence ratio was 0.996 ± 0.013.
In the case of GGAATGGCTT, the switch fluorescence ratio is reported as 0.999 ± 0.0091.
With GGAATTGGAT the switch fluorescence ratio was 1 ± 0.025.
Work on GGAATTTAAT yielded a switch fluorescence ratio of 0.998 ± 0.0014.
GGACACAGGC was tested, and the switch fluorescence ratio was 1.01 ± 0.023.
Sequence GGACAGCGCG has a switch fluorescence ratio of 1 ± 0.07.
With GGACATATTA the switch fluorescence ratio was 1 ± 0.028.
GGACATTGG gave a switch fluorescence ratio of 1.03 ± 0.02.
In the case of GGACCAAGTG, the switch fluorescence ratio is reported as 1.03 ± 0.025.
Sequence GGACCCGCCG has a switch fluorescence ratio of 1.025 ± 0.0016.
GGACCCTAAC was tested, and the switch fluorescence ratio was 1.08 ± 0.062.
For GGACCGGGGT, the switch fluorescence ratio was 0.966 ± 0.034.
GGACGAAGGG showed a switch fluorescence ratio of 1.09 ± 0.018.
GGACGATTTG gave a switch fluorescence ratio of 1.05 ± 0.054.
GGACGCATAA showed a switch fluorescence ratio of 3.51 ± 1.3.
For GGACGGGAAC, the switch fluorescence ratio was 1.13 ± 0.055.
With GGACGGGGGG the switch fluorescence ratio was 1.01 ± 0.056.
Work on GGACGGGGTC yielded a switch fluorescence ratio of 1.01 ± 0.013.
Sequence GGACGGGGTT has a switch fluorescence ratio of 0.97 ± 0.019.
Sequence GGACGTCTGA has a switch fluorescence ratio of 1.02 ± 0.041.
GGACGTTGGT was tested, and the switch fluorescence ratio was 1.02 ± 0.022.
GGACTAGCTT gave a switch fluorescence ratio of 1.03 ± 0.032.
GGACTATGCT was tested, and the switch fluorescence ratio was 0.962 ± 0.011.
In the case of GGACTATGGT, the switch fluorescence ratio is reported as 0.981 ± 0.014.
In the case of GGACTCTGGG, the switch fluorescence ratio is reported as 0.966 ± 0.058.
For GGACTTAGAT, the switch fluorescence ratio was 1.02 ± 0.039.
GGACTTCTTG was tested, and the switch fluorescence ratio was 0.932 ± 0.045.
GGACTTTCGT gave a switch fluorescence ratio of 0.993 ± 0.015.
Work on GGACTTTTCA yielded a switch fluorescence ratio of 0.96 ± 0.014.
GGAGAAGAGA showed a switch fluorescence ratio of 0.9875 ± 0.004.
With GGAGAAGGGT the switch fluorescence ratio was 0.9967 ± 0.0047.
GGAGACCTTT showed a switch fluorescence ratio of 1.03 ± 0.041.
